The values that follow come from patent US20210189007A1 (BOARD OF REGENTS OF THE UNIVERSITY OF OKLAHOMA, published 2021).

This assay addresses T1, DCLK1 isoform 4 purified protein (human, UniProt O15075 314-740).
T1 construct: Purified protein used in Western blot and ELISA; also called Doublecortin-like kinase 1 isoform 4; DCLK1 purified protein
T1 sequence: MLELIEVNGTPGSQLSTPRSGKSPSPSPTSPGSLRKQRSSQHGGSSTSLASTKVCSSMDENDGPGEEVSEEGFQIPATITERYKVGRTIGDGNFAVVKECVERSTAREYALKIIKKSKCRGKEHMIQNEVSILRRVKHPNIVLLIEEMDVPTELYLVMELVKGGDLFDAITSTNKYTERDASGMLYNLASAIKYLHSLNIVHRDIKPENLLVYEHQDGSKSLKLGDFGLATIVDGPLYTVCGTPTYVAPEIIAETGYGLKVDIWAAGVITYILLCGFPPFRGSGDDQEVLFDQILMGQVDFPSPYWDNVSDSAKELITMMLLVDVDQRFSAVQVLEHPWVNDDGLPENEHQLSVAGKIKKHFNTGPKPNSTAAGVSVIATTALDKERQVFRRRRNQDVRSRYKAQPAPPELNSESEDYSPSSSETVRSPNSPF
In words: Western blot on purified protein. For orientation: In western blotting, separated proteins are transferred to a membrane and probed.

B1: CBT-15A monoclonal antibody (antibody, V domains shown)
VH: DVKLVESGGGLVKLGGSLKLSCAASGFTFSSYYMSWVRQTPEKRLELVAAINSNGGSTYYPDTVKGRFTISRDNAKNTLYLQMSSLKSEDTALYYCARHGGNYWYFDVWGAGTTVTVSS
VL: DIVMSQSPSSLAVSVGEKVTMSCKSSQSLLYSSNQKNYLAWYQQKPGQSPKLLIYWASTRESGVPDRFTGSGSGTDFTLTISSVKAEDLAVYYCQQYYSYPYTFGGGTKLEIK
notes: Mouse hybridoma antibody raised against KLH-linked immunogen no; also called CBT-15A mAB; CBT-15 mAB (A)
Take B1: the binding result is “binds”.
